Assay results published in PMC2212946.

Biological target: Fc fragment of IgE (domains Cε2-4) (human)
Experiment: SPR

Sequence of Fc fragment of IgE (domains Cε2-4) (human) (P01854 whole entry, the tested form may be a part): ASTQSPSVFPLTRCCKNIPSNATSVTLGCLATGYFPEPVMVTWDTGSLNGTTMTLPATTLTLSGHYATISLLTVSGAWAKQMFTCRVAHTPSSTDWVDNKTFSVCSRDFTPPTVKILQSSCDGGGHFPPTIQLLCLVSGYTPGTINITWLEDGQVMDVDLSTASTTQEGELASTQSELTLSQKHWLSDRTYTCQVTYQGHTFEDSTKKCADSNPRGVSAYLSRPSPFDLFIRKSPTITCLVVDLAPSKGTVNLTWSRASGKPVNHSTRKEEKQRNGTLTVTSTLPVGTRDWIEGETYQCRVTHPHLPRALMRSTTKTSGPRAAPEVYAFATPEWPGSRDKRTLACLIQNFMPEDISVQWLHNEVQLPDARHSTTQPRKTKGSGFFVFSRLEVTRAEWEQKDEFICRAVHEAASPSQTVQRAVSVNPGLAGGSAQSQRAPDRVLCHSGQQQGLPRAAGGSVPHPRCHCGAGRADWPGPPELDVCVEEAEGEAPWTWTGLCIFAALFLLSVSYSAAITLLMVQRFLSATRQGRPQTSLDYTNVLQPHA

Row | Kd [nM] | KD, first of two components [nM] | KD, second of two components [nM] | koff, major component [s⁻¹] | koff, minor component [s⁻¹] | Binder
1 | 1300 |  |  |  |  | derCD23, recombinant version of the Der p I fragment of human CD23 (FcεRII), C-type lectin domain (domain or fragment) SGFVCNTCPEKWINFQRKCYYFGKGTKQWVHARYACDDMEGQLVSIHSPEEQDFLTKHASHTGSWIGLRNLDLKGEFIWVDGSHVDYSNWAPGEPTSRSQGEDCVMMRGSGRWNDAFCDRKLGAWVCDRLATCTPPASEGSAE
2 |  | 1100 | 39 | 0.0005 | 0.04 | exCD23, recombinant soluble CD23 fragment containing the entire extracellular sequence (domain or fragment) DTTQSLKQLEERAARNVSQVSKNLESHHGDQMAQKSQSTQISQELEELRAEQQRLKSQDLELSWNLNGLQADLSSFKSQELNERNEASDLLERLREEVTKLRMELQVSSGFVCNTCPEKWINFQRKCYYFGKGTKQWVHARYACDDMEGQLVSIHSPEEQDFLTKHASHTGSWIGLRNLDLKGEFIWVDGSHVDYSNWAPGEPTSRSQGEDCVMMRGSGRWNDAFCDRKLGAWVCDRLATCTPPASEGSAESMGPDSRPDPDGRLPTPSAPLHS
